The values below are quoted from earlier work in patent publication US5679705A, “Triterpene derivatives with immunosuppressant activity” (Merck & Co., Inc., priority 1996, dated 1997).

As usually defined, the IC50 is the point on the concentration scale where inhibition reaches its midpoint.

The target in the data set is T1, Kv 1.3 channels (CHO cells transfected with Kv 1.3 channels) (Homo sapiens, UniProt P22001).
T1 construct: expressed in transfected cells; host or cells: CHO cells
As to conditions: stated in the method for the peptide used to establish the efflux window; read-out: IC50 (blocker of Kv 1.3 channels).

T1 sequence (P22001 whole entry): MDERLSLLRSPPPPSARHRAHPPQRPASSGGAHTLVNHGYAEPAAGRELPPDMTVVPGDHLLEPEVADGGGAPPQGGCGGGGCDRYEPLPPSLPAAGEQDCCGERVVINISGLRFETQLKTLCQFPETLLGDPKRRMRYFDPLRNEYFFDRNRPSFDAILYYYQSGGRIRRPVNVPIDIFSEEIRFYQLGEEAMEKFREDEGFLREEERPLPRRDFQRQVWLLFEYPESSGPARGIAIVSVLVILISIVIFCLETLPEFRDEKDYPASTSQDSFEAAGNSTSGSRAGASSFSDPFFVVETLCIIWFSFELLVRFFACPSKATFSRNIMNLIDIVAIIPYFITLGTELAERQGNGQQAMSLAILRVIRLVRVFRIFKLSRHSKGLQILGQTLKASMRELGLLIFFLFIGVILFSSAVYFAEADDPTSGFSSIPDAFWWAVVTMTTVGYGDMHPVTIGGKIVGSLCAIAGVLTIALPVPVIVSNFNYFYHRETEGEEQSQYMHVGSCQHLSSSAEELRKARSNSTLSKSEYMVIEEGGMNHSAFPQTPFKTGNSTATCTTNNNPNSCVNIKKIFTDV

With “margatoxin (TIINVKCTSPKQCLPPCKAQFGQSAGAKCMNGKCKCYPH; UniProt P40755 1-39, looked up)”, the concentration for half-maximal inhibition (IC50) is 100 pM.
